Results on 1 molecule are retold here after patent US20240076396A1 (Regeneron, published 2024).

As usually defined, the EC50 is the concentration at which the effect is half-maximal. One may read the IC50 as the point on the concentration scale where inhibition reaches its midpoint. The term EC50 (read off the curve) denotes the concentration at which the effect is half-maximal.

The target in test [1] is T1, cynomolgus monkey GITR expressed on the cell surface (Macaca fascicularis (cynomolgus monkey)).
T1 construct: whole, on cells; also called MfGITR; Jurkat/hCD20/MfGITR cells
In words: flow cytometry on Jurkat/hCD20/MfGITR cells. As to the method:
(§1) FIG. 5A, FIG. 5B, and FIG. 5C depict cell-surface binding of mAb1 and IgG1 isotype control at a range of concentrations (18 pM to 300 nM) on Jurkat/hCD20 (FIG. 5A), Jurkat/hCD20/hGITR (FIG. 5B), and Jurkat/hCD20/MfGITR (FIG. 5C) cells. Binding was detected using an Alexa647-labeled anti-human IgG by flow cytometry. Fluorescence intensity was plotted as geometric MFI. h, Human; Mf, Macaca fascicularis (cynomolgus monkey).
(§2) Flow cytometry was used to evaluate mAb1 binding to Jurkat/hCD20/hGITR cells and Jurkat/hCD20/MfGITR cells. Jurkat/hCD20 cells were used as a negative control cell line for GITR binding. Cells were added to a 96-well V-bottom plate (2×10⁵ to 4×10⁵ cells/well) and incubated in Fc block solution, followed by successive incubation on ice with primary antibody (mAb1 or IgG1 isotype control) at final concentrations ranging from 18 pM to 300 nM and a secondary antibody (AF647-conjugated anti-human IgG) at 5 μg/mL. […] Data were analyzed with Flow.lo software. For EC₅₀ (effective concentration at 50% activity) determinations, measured geometric MFI values were analyzed using a 4-parameter logistic equation over a 9-point response curve with GraphPad Prism. The fold binding was determined by taking the ratio of the highest MFI on the curve to the MFI of the wells containing secondary antibody only.

Test [2] addresses T2, hGITR.mmH (soluble monomeric recombinant human GITR ectodomain protein) (human).
T2 construct: also called monomeric human GITR
T2 chain: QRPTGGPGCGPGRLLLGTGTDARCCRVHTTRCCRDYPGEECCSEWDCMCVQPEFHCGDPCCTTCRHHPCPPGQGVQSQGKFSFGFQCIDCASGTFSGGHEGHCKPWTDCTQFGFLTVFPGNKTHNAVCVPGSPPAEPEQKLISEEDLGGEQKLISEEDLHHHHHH
The test is described as follows: blocking ELISA: 1.5 nM hGITR.mmH pre-incubated with antibody, binding to plate-coated hGITR-L. For orientation: ELISA stands for enzyme-linked immunosorbent assay.

Test [3] has as its target T1, cynomolgus monkey GITR expressed on the …. The test is described as follows: cell-based or functional assay.
The target of test [4] is T3, human GITR expressed on the cell surface (human, UniProt Q9Y5U5 26-241).
T3 sequence: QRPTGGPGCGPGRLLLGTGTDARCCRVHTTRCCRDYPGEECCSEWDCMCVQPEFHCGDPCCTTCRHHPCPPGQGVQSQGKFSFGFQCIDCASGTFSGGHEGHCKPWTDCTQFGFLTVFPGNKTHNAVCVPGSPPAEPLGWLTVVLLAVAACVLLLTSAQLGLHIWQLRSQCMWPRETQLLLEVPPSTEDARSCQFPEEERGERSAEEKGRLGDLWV
The test is described as follows: cell-based or functional assay.

For test [5], the target named is T3, human GITR expressed on the cell surface. In words: cell-based or functional assay. The source holds these as a separate data set.
Test [6] has the same target. In words: flow cytometry on Jurkat/hCD20/hGITR cells. As to the method:
as §1, §2
Background: A flow cytometer gives signals particle by particle.

The target in test [7] is T1, cynomolgus monkey GITR expressed on the …. The test is described as follows: cell-based or functional assay. The source holds these as a separate data set.
For test [8], the target named is T3, human GITR expressed on the cell surface. The test is described as follows: cell-based or functional assay. This is another data set of the same source.
Test [9] deals with T1, cynomolgus monkey GITR expressed on the …. In words: flow cytometry, AF647-conjugated antibody on CD4+ CD69+ cynomolgus monkey primary T cells, donor 58947. As to the method: FIG. 7 depicts antibody binding to CD69+ cynomolgus monkey primary T-cells. Primary cynomolgus monkey T-cells from 4 separate donors were stimulated in vitro with anti-CD2/anti-CD3/anti-CD28-coated beads. Cell-surface binding of AF647-conjugated mAb1 and AF647-conjugated IgG1 isotype control at a range of concentrations (8 pM to 200 nM) on CD69⁺ and CD69⁻ cynomolgus monkey primary CD4⁺ and CD8⁺ T-cells was detected using flow cytometry. Fluorescence intensity was plotted as geometric MFI. Mf, Macaca fascicularis (cynomolgus monkey)
Peripheral blood mononuclear cells (PBMC) were isolated from human or cynomolgus monkey whole blood (4 donors each) using density centrifugation through Ficoll-Paque PLUS in SepMate tubes (for human PBMC) or 50 mL conical tubes (for cynomolgus monkey PBMC) and transferred to a fresh conical tube for incubation in Red Blood Cell (RBC) Lysis Buffer. […] After 4 days, activation beads were removed from the culture using a MACSiMAG Separator, and cells were collected and counted.
Flow cytometry was used to evaluate mAb1 binding to human or cynomolgus monkey T-cells in activated PBMC. […] Data were analyzed with Flowio software. For EC₅₀ determinations, measured geometric MFI values were analyzed using a 4-parameter logistic equation over a 12-point response curve with GraphPad Prism.

B1: mAb1 (antibody, human IgG1, kappa, V domains shown)
VH: QVQLQESGPGLVKPSETLSLTCIVSGGSISGYFWNWIRQPPGKGLEWIGYIYYSGTTIYNPSLKSRFTISLDTSKNQFSLKLTSVTAADTAVYYCARESYDPSPRYFDHWGQGTLVTVSS
VL: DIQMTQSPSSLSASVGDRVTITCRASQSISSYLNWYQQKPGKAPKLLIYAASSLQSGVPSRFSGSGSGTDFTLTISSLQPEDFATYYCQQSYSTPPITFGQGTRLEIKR
notes: Human IgG1; N101D variant of CompAb1; also called N101D Variant; N101D
For B1, a half-maximal response in test [1] (EC50) required 3.52 nM. The IC50 in [2] was found to be 6.66 nM. In test [3], the “EC50, ADCC against Jurkat/hCD20/MfGITR, Donor 6500V NK cells” value came out at 10.8 pM and the “EC50, ADCC against Jurkat/hCD20/MfGITR, Donor 6700R NK cells” value is 12.1 pM. In test [4], the “EC50, ADCC against Jurkat/hCD20/hGITR, Donor 6500V NK cells” value worked out at 12.2 pM and the “EC50, ADCC against Jurkat/hCD20/hGITR, Donor 6700R NK cells” value was 13 pM. Also, in test [5], the “EC50, anti-CD3-mediated primary CD4+ T-cell proliferation, Donor 1900G” value was determined as 430 pM; the “EC50, anti-CD3-mediated primary CD4+ T-cell proliferation, Donor 2000U” value came out at 39.1 pM; the “EC50, anti-CD3-mediated primary CD4+ T-cell proliferation, Donor 3600Y” value amounted to 17.2 nM; the “EC50, anti-CD3-mediated primary CD4+ T-cell proliferation, Donor 3800U” value amounted to 107 pM. For the same molecule, in test [5], the “EC50, anti-CD3-mediated primary CD4+ T-cell proliferation, Donor 34001” value was 193 pM; the “Fold Change in Activity, anti-CD3-mediated primary CD4+ T-cell proliferation, Donor 1900G” value turned out to be 3.14 fold; the “Fold Change in Activity, anti-CD3-mediated primary CD4+ T-cell proliferation, Donor 2000U” value worked out at 2.45 fold; the “Fold Change in Activity, anti-CD3-mediated primary CD4+ T-cell proliferation, Donor 3600Y” value was 2.3 fold. Also, in test [5], the “Fold Change in Activity, anti-CD3-mediated primary CD4+ T-cell proliferation, Donor 3800U” value worked out at 2.45 fold; the “Fold Change in Activity, anti-CD3-mediated primary CD4+ T-cell proliferation, Donor 34001” value came to 2.62 fold; the “Fold Change in Activity, anti-CD3-mediated primary CD4+ T-cell proliferation, Donor 41003” value amounted to 2.54 fold. This molecule also yielded an EC50 in [6] of 1.96 nM. Further, in test [7], the “EC50, ADCP of Jurkat/hCD20/MfGITR” value is 510 pM and the “Fold Change in Activity, ADCP of Jurkat/hCD20/MfGITR” value turned out to be 6.98 fold. In addition, the “Fold Change in Activity, ADCP of Jurkat/hCD20/hGITR” value in test [8] came to 5.92 fold. Moreover, the “EC50 (read off the curve)” value in test [9] was about 3 nM.
